Residue numbers refer to the chain shown, from its start. “And” between values parts separate entries of the source, which are not always exact repeats. Equal values may be shown once.

T1: human B7-H4 on cells (human, UniProt Q7Z7D3 25-282)
T1 sequence (looked up): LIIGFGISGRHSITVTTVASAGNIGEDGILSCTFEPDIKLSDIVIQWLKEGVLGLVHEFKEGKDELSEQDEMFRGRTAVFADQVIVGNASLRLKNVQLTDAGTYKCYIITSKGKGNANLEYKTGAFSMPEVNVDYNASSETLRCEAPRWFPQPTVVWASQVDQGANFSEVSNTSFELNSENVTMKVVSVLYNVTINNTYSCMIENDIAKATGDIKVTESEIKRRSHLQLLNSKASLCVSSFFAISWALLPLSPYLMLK

T2: human B7-H4 extracellular domain (human, UniProt Q7Z7D3 29-258)
T2 construct: Soluble ECD used as SPR analyte; also called huB7-H4 ECD; huB7-H4
T2 sequence: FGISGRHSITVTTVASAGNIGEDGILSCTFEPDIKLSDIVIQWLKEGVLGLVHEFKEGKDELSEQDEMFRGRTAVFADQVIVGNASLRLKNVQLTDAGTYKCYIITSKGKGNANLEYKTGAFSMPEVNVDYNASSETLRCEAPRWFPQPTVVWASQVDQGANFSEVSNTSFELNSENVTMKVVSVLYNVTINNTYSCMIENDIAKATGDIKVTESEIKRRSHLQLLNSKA

T3: human B7-H4 extracellular domain (human, UniProt Q7Z7D3 29-258)
T3 construct: For SPR it says only human B7-H4 ECD; also called Hu B7-H4 ECD; huB7-H4 ECD
T3 sequence: T2 sequence

B1: B7-H4xCD3 bispecific antibody 0077 (bispecific antibody)
heavy 1: QVQLQQWGAGLLKPSETLSLTCALYGGSFSGYYWNWIRQPPGKGLEWIGEINHSGSANYNPSLKSRVTISVDTSKNQFSLRLSSVTAADTAVYYCARGLYNWNVDRWGQGTLVTVSSASTKGPSVFPLAPCSRSTSESTAALGCLVKDYFPEPVTVSWNSGALTSGVHTFPAVLQSSGLYSLSSVVTVPSSNFGTQTYTCNVDHKPSNTKVDKTVERKCEVECPECPAPPVAGPSVFLFPPKPKDTLMISRTPEVTCVVVAVSHEDPEVQFNWYVDGVEVHNAKTKPREEQFNSTFRVVSVLTVVHQDWLNGKEYKCKVSNKGLPSSIEKTISKTKGQPREPQVYTLPPSREEMTKNQVSLTCEVKGFYPSDIAVEWESNGQPENNYKTTPPMLDSDGSFFLYSKLTVDKSRWQQGNVFSCSVMHEALHNHYTQKSLSLSPGK
light 1: not shown
heavy 2: EVQLVESGGGLVQPGGSLRLSCAASGFTFSDYYMTWVRQAPGKGLEWVAFIRNQARGYTSDHNPSVKGRFTISRDNAKNSLYLQMNSLRAEDTAVYYCARDRPSYYVLDYWGQGTTVTVSSASTKGPSVFPLAPCSRSTSESTAALGCLVKDYFPEPVTVSWNSGALTSGVHTFPAVLQSSGLYSLSSVVTVPSSNFGTQTYTCNVDHKPSNTKVDKTVERKCRVRCPRCPAPPVAGPSVFLFPPKPKDTLMISRTPEVTCVVVAVSHEDPEVQFNWYVDGVEVHNAKTKPREEQFNSTFRVVSVLTVVHQDWLNGKEYKCKVSNKGLPSSIEKTISKTKGQPREPQVYTLPPSREEMTKNQVSLTCLVKGFYPSDIAVEWESNGQPENNYKTTPPMLDSDGSFFLYSRLTVDKSRWQQGNVFSCSVMHEALHNHYTQKSLSLSPGK
light 2: DIQMTQSPSSLSASVGDRVTITCTSSQSLFNVRSQKNYLAWYQQKPGKAPKLLIYWASTRESGVPSRFSGSGSGTDFTLTISSLQPEDFATYYCKQSYDLFTFGGGTKVEIKRTVAAPSVFIFPPSDEQLKSGTASVVCLLNNFYPREAKVQWKVDNALQSGNSQESVTEQDSKDSTYSLSSTLTLSKADYEKHKVYACEVTHQGLSSPVTKSFNRGEC
notes: also called anti-B7-H4 clone 19D3
B2: B7-H4 antibody 1117 (antibody, human IgG1, kappa, V domains shown)
VH: EVQLLESGGGLVQPGGSLRLSCAASGFTFSSYAMSWVRQAPGKGLEWVSAISGGGGSTYYADSVKGRFTISRDNSKNTLYLQMNSLRAEDTAVYYCARDIQWYGESTLFDYWGQGTLVTVSS
VL: DIQMTQSPSSLSASVGDRVTITCRASQSTRSWLAWLQQKPGKAPKLLIYKASSLESGVPSRFSGSGSGTDFTLTISSLQPEDFATYYCQQYGSYSRTFGQGTKVEIKR
notes: IgG1 mAb format
B3: B7-H4 antibody 1115 (antibody, human IgG1, kappa, V domains shown)
VH: B2 VH
VL: B2 VL with L36Y
notes: IgG1 mAb format
B4: B7-H4 antibody 1116 (antibody, human IgG1, kappa, V domains shown)
VH: B2 VH
VL: B2 VL with L36H
notes: IgG1 mAb format
B5: B7-H4 antibody 1113 (antibody, human IgG1, kappa, V domains shown)
VH: B2 VH
VL: B2 VL with L36Y, S56G
notes: IgG1 mAb format
B6: B7-H4 antibody 0119 (antibody, human IgG1, kappa, V domains shown)
VH: B2 VH with Y103F
VL: B2 VL with T29I, L36Y, S56G, G92N
B7: B7-H4 antibody 0274 (antibody, human IgG1, kappa, V domains shown)
VH: B2 VH with Y103F
VL: B2 VL with T29I, L36F, S56G, G92N
B8: B7-H4 antibody 1115 (antibody, human IgG1, kappa, V domains shown)
VH: B2 VH
VL: B2 VL with L36Y
B9: B7-H4 antibody 0414 (antibody, human IgG1, kappa, V domains shown)
VH: B2 VH with Y103F
VL: B2 VL with L36Y, S56G
B10: B7-H4 antibody 1117 (antibody, human IgG1, kappa, V domains shown)
VH: B2 VH
VL: B2 VL
B11: B7-H4 antibody 0571 (antibody, human IgG1, kappa, V domains shown)
VH: B2 VH with Y103F
VL: B2 VL with L36H
B12: B7-H4 antibody 0572 (antibody, human IgG1, kappa, V domains shown)
VH: B2 VH with Y103F
VL: B2 VL
B13: B7-H4 antibody 0562 (antibody, human IgG1, kappa, V domains shown)
VH: B2 VH with Y59Q, Y103F
VL: B2 VL with M4L, S10T, T29I, L36F, S56G, D70E, E81D, G92N
B14: B7-H4 antibody 1116 (antibody, human IgG1, kappa, V domains shown)
VH: B2 VH
VL: B2 VL with L36H
B15: B7-H4 antibody 0567 (antibody, human IgG1, kappa, V domains shown)
VH: B2 VH with Y103F
VL: B2 VL with W32H, L36Y, S56G
B16: B7-H4 antibody 0565 (antibody, human IgG1, kappa, V domains shown)
VH: B2 VH with Y103F, E105R
VL: B2 VL with M4L, S10T, T29I, L36F, S56G, D70E, E81D, G92N
B17: B7-H4 antibody 0570 (antibody, human IgG1, kappa, V domains shown)
VH: B2 VH with Y103F
VL: B2 VL with L36Y
B18: B7-H4 antibody 0563 (antibody, human IgG1, kappa, V domains shown)
VH: B2 VH
VL: B2 VL with M4L, S10T, T29I, L36F, S56G, D70E, E81D, G92N
B19: B7-H4 antibody 1113 (antibody, human IgG1, kappa, V domains shown)
VH: B2 VH
VL: B2 VL with L36Y, S56G
B20: B7-H4 antibody 0564 (antibody, human IgG1, kappa, V domains shown)
VH: B2 VH with Y103H
VL: B2 VL with M4L, S10T, T29I, L36F, S56G, D70E, E81D, G92N

T5 sequence (Q95LI5 22-117, stated change not applied, chain 1 of 2): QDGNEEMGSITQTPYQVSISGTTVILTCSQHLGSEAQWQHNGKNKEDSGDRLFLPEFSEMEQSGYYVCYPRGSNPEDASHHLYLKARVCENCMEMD
T5 sequence (Q95LI8 22-105, stated change not applied, chain 2 of 2): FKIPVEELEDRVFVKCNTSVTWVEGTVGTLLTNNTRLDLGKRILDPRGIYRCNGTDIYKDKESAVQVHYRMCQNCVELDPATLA

The target in the first experiment is T4, human CD3 (delta/epsilon heterodimer) (human, UniProt P07766 23-126; P04234 22-105).
T4 construct: captured on an anti-His chip, so it carries a His tag; also called huCD3
T4 sequence (P07766 23-126, stated change not applied, chain 1 of 2): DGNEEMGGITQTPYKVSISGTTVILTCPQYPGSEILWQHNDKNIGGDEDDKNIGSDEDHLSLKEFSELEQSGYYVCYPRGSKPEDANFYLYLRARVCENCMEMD
T4 sequence (P04234 22-105, stated change not applied, chain 2 of 2): as the sequence (Q95LI8 22-105, stated change not applied, chain 2 of 2) above, with V5I, K15N, V20I, T32S, N33D, N34I, A64T, N74S, L83V counted along it
Briefly: SPR 25 C; CD3 delta/epsilon on anti-His chip, bispecific analyte.
The Kd is a measure of binding affinity in units of concentration. The term koff denotes the rate constant with which the complex falls apart. In general, kon refers to the rate constant with which the complex forms. On to B1, for which the Kd came out at 12.7 nM, the dissociation rate constant (koff) was determined as 0.00536 s⁻¹ and the on-rate constant (kon) was found to be 423000 M⁻¹ s⁻¹.

Another experiment has as its target T5, cyno CD3 (delta/epsilon heterodimer) (cyno, UniProt Q95LI5 22-117; Q95LI8 22-105).
T5 construct: also called cyCD3
The description is as above.
Molecule B1 came in with a Kd of 13.7 nM, a koff of 0.00504 s⁻¹ and a kon of 369000 M⁻¹ s⁻¹.

A further experiment deals with T1, human B7-H4 on cells. Nature of the experiment: cell-based or functional assay.
Regarding B1, the “T cell mediated tumor cell killing EC50, HCC1954-Luc” value came to 93 nM.

The target of a further experiment is T2, human B7-H4 extracellular domain. Briefly: SPR 37 C; IgG1 on anti-hFc chip, ECD analyte.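 Note: antibodies captured, then B7-H4 ECD injected at five 3-fold dilutions from 300 nM, 65 s association and 600 s dissociation, fitted to a 1:1 Langmuir model.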
Consider B2, for which the Kd worked out at 1.54 nM, the koff is 0.000949 s⁻¹ and the association rate constant (kon) is 620000 M⁻¹ s⁻¹. In the same order, the values of B3 are 2.62 nM, 0.00116 s⁻¹ and 443000 M⁻¹ s⁻¹. With B4, the Kd came out at 2.05 nM, the off-rate (koff) was found to be 0.00126 s⁻¹ and the kon was 612000 M⁻¹ s⁻¹. The molecule B5 yielded a Kd of 4.31 nM, a koff of 0.00108 s⁻¹ and a kon of 251000 M⁻¹ s⁻¹.

The next experiment addresses T3, human B7-H4 extracellular domain. Briefly: competition ELISA on coated huB7-H4 ECD; competitor biotinylated 0058 (by series, not given). (In an ELISA, binding on a coated surface is turned into a signal by an enzyme label.)
In general, IC50 refers to the concentration needed to halve the response being measured. Low readings indicate inhibition by little substance, high ones a need for much substance. On to B6, for which the IC50 was 7.52 nM and 13.7 nM. B7 came in with an IC50 of 4.2 nM. For B8, the half-maximal inhibitory concentration (IC50) is 0.42 nM.

Turning to B9, the IC50 was 6.57 nM and 8 nM. The same measure, in the same setting: under B10 stands 0.15 nM. Take B11: the IC50 is 2.1 nM.

In the case of B12, the half-maximal inhibitory concentration (IC50) came out at 1.7 nM. The same measure, in the same setting: under B13 stands 2.4 nM; under B14, 0.16 nM; under B15, 5.4 nM.

B16 yielded an IC50 of 22.7 nM.

On to B17, for which the half-inhibitory concentration (IC50) was 3.1 nM. Turning to B18, the IC50 is 2 nM. The molecule B19 came in with an IC50 of 1 nM. Molecule B20 displayed an IC50 of 35.2 nM.
